Measured values reported in the supplement of paper PMC5998384.

Assays:
HeLa Kyoto [1] = assay: solubility change mitosis vs G1/S (difference of NP-40 vs SDS log2 ratios) (log2 ratio difference); higher = more soluble in mitosis
HeLa Kyoto [2] = assay: melting temperature (median over replicates), in situ; higher = more thermally stable
HeLa Kyoto [3] = assay: thermal stability score vs G1/S (z-score of summed log2 fold changes over temperatures); higher = more thermally stable than in G1/S
HeLa Kyoto [4] = assay: solubility in G1/S (NP-40 vs SDS abundance) (log2 ratio); higher = more soluble; settings: cell cycle stage: G1/S
[5] = cell cycle stage: early G1 (4.5 h after nocodazole release)
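Throughout, for melting temperature (median over replicates), in situ: HeLa Kyoto cells synchronized by double thymidine or nocodazole block, proteins quantified by TMT10plex mass spectrometry, three independent biological replicates.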
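Throughout, for solubility change mitosis vs G1/S (difference of NP-40 vs SDS log2 ratios): synchronized HeLa Kyoto cells (double thymidine block for G1/S, nocodazole release for mitosis), protein amounts in NP-40 versus SDS lysates quantified by mass spectrometry, three biological replicates.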
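Throughout, for solubility in G1/S (NP-40 vs SDS abundance): HeLa Kyoto cells arrested at G1/S by double thymidine block, proteins quantified by TMT10plex mass spectrometry in mild NP-40 versus SDS extracts, three biological replicates.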
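Throughout, for thermal stability score vs G1/S (z-score of summed log2 fold changes over temperatures): synchronized HeLa Kyoto cells, proteins quantified by TMT10plex mass spectrometry, three biological replicates, mitosis taken 0.5 h after nocodazole release, G1/S directly after double thymidine block.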

NDRG3, sequence (chain, as listed by the source): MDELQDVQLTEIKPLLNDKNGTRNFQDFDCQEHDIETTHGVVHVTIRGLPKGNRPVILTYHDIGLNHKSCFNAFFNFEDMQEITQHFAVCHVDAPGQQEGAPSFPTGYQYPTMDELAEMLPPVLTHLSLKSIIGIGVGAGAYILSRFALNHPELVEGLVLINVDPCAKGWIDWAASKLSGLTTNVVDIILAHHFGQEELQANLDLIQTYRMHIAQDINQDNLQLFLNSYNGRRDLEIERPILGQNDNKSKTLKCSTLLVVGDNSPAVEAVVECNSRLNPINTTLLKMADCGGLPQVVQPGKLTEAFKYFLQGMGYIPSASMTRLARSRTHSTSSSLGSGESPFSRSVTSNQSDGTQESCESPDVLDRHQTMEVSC
NARFL, sequence (chain, as listed by the source): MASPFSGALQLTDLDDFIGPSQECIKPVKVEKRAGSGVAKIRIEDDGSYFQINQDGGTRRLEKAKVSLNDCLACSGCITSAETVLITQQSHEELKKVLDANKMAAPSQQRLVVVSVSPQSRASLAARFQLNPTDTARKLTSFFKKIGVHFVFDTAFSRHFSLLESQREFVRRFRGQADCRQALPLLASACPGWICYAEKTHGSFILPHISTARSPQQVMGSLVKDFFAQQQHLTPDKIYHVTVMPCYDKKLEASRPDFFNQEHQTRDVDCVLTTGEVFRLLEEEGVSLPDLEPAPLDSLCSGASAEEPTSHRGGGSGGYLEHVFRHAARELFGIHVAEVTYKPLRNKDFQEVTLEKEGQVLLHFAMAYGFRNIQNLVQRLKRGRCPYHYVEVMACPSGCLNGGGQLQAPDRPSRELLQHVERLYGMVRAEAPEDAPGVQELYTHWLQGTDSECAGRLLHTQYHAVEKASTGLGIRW
NRBP1, sequence (chain, as listed by the source): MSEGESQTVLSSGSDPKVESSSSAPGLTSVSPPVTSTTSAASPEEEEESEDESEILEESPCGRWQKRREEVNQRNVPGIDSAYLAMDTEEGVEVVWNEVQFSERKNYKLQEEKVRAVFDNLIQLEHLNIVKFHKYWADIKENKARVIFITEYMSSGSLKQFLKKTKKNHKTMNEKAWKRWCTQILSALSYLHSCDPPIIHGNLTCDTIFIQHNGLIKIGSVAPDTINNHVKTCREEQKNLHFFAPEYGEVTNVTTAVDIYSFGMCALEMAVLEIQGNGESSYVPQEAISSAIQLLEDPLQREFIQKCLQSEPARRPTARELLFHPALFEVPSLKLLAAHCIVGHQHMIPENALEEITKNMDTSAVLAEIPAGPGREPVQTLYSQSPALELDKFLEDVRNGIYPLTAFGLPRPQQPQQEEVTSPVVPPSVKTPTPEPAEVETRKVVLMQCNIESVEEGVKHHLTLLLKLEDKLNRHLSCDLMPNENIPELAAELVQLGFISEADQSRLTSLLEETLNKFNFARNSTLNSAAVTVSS
NDRG1, sequence (chain, as listed by the source): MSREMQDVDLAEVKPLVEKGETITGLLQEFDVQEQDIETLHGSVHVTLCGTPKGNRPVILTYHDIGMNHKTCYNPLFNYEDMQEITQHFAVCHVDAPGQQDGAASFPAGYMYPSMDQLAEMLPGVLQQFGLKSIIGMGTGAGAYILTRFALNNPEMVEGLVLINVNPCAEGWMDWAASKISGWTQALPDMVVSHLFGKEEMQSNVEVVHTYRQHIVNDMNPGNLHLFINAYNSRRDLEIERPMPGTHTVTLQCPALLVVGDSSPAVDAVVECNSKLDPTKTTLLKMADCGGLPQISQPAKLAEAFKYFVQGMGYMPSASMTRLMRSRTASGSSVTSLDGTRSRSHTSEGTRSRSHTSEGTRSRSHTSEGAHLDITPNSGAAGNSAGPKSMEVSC
NUDC, sequence (chain, as listed by the source): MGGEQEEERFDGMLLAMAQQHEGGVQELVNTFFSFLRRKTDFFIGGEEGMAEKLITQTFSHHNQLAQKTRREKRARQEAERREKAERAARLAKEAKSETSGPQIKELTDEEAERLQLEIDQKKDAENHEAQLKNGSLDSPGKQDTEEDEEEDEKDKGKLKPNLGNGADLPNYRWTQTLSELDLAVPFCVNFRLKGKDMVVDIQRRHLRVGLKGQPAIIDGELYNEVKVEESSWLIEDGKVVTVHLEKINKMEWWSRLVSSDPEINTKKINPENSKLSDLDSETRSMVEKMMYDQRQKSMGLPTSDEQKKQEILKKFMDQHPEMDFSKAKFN

Row | Substance | solubility change mitosis (log2) (HeLa Kyoto [1]) | melting temperature (HeLa Kyoto [2]; cell cycle stage: G1/S) [°C] | melting temperature (HeLa Kyoto [2]; cell cycle stage: mitosis) [°C] | thermal stability score (HeLa Kyoto [3]; [5]) | thermal stability score (HeLa Kyoto [3]; cell cycle stage: mitosis) | solubility in G1/S (log2) (HeLa Kyoto [4])
1 | MWIQVRTMDGRQTHTVDSLSRLTKVEELRRKIQELFHVEPGLQRLFYRGKQMEDGHTLFDYEVRLNDTIQLLVRQSLVLPHSTKERDSELSDTDSGCCLGQSESDKSSTHGEAAAETDSRPADEDMWDETELGLYKVNEYVDARDTNMGAWFEAQVVRVTRKAPSRDEPCSSTSRPALEEDVIYHVKYDDYPENGVVQMNSRDVRARARTIIKWQDLEVGQVVMLNYNPDNPKERGFWYDAEISRKRETRTARELYANVVLGDDSLNDCRIIFVDEVFKIERPGEGSPMVDNPMRRKSGPSCKHCKDDVNRLCRVCACHLCGGRQDPDKQLMCDECDMAFHIYCLDPPLSSVPSEDEWYCPECRNDASEVVLAGERLRESKKKAKMASATSSSQRDWGKGMACVGRTKECTIVPSNHYGPIPGIPVGTMWRFRVQVSESGVHRPHVAGIHGRSNDGAYSLVLAGGYEDDVDHGNFFTYTGSGGRDLSGNKRTAEQSCDQKLTNTNRALALNCFAPINDQEGAEAKDWRSGKPVRVVRNVKGGKNSKYAPAEGNRYDGIYKVVKYWPEKGKSGFLVWRYLLRRDDDEPGPWTKEGKDRIKKLGLTMQYPEGYLEALANREREKENSKREEEEQQEGGFASPRTGKGKWKRKSAGGGPSRAGSPRRTSKKTKVEPYSLTAQQSSLIREDKSNAKLWNEVLASLKDRPASGSPFQLFLSKVEETFQCICCQELVFRPITTVCQHNVCKDCLDRSFRAQVFSCPACRYDLGRSYAMQVNQPLQTVLNQLFPGYGNGR [UHRF1] | 0.3 | 45.8 | 48.3 | 4.54 | 8.25 | -0.563
2 | MWLEILLTSVLGFAIYWFISRDKEETLPLEDGWWGPGTRSAAREDDSIRPFKVETSDEEIHDLHQRIDKFRFTPPLEDSCFHYGFNSNYLKKVISYWRNEFDWKKQVEILNRYPHFKTKIEGLDIHFIHVKPPQLPAGHTPKPLLMVHGWPGSFYEFYKIIPLLTDPKNHGLSDEHVFEVICPSIPGYGFSEASSKKGFNSVATARIFYKLMLRLGFQEFYIQGGDWGSLICTNMAQLVPSHVKGLHLNMALVLSNFSTLTLLLGQRFGRFLGLTERDVELLYPVKEKVFYSLMRESGYMHIQCTKPDTVGSALNDSPVGLAAYILEKFSTWTNTEFRYLEDGGLERKFSLDDLLTNVMLYWTTGTIISSQRFYKENLGQGWMTQKHERMKVYVPTGFSAFPFELLHTPEKWVRFKYPKLISYSYMVRGGHFAAFEEPELLAQDIRKFLSVLERQ [EPHX1] | -0.197 | 57.9 | 58.1 | -3.88 | -2.14 | -0.336
3 | MWLKVGGLLRGTGGQLGQTVGWPCGALGPGPHRWGPCGGSWAQKFYQDGPGRGLGEEDIRRAREARPRKTPRPQLSDRSRERKVPASRISRLANFGGLAVGLGLGVLAEMAKKSMPGGRLQSEGGSGLDSSPFLSEANAERIVQTLCTVRGAALKVGQMLSIQDNSFISPQLQHIFERVRQSADFMPRWQMLRVLEEELGRDWQAKVASLEEVPFAAASIGQVHQGLLRDGTEVAVKIQYPGIAQSIQSDVQNLLAVLKMSAALPAGLFAEQSLQALQQELAWECDYRREAACAQNFRQLLANDPFFRVPAVVKELCTTRVLGMELAGGVPLDQCQGLSQDLRNQICFQLLTLCLRELFEFRFMQTDPNWANFLYDASSHQVTLLDFGASREFGTEFTDHYIEVVKAAADGDRDCVLQKSRDLKFLTGFETKAFSDAHVEAVMILGEPFATQGPYDFGSGETARRIQDLIPVLLRHRLCPPPEETYALHRKLAGAFLACAHLRAHIACRDLFQDTYHRYWASRQPDAATAGSLPTKGDSWVDPS [ADCK4] | 0.0635 | 50.7 | 49.8 | -0.115 | 0.518 | 0.00454
4 | MWRLPRALCVHAAKTSKLSGPWSRPAAFMSTLLINQPQYAWLKELGLREENEGVYNGSWGGRGEVITTYCPANNEPIARVRQASVADYEETVKKAREAWKIWADIPAPKRGEIVRQIGDALREKIQVLGSLVSLEMGKILVEGVGEVQEYVDICDYAVGLSRMIGGPILPSERSGHALIEQWNPVGLVGIITAFNFPVAVYGWNNAIAMICGNVCLWKGAPTTSLISVAVTKIIAKVLEDNKLPGAICSLTCGGADIGTAMAKDERVNLLSFTGSTQVGKQVGLMVQERFGRSLLELGGNNAIIAFEDADLSLVVPSALFAAVGTAGQRCTTARRLFIHESIHDEVVNRLKKAYAQIRVGNPWDPNVLYGPLHTKQAVSMFLGAVEEAKKEGGTVVYGGKVMDRPGNYVEPTIVTGLGHDASIAHTETFAPILYVFKFKNEEEVFAWNNEVKQGLSSSIFTKDLGRIFRWLGPKGSDCGIVNVNIPTSGAEIGGAFGGEKHTGGGRESGSDAWKQYMRRSTCTINYSKDLPLAQGIKFQ [ALDH7A1] | -0.107 | 54.3 | 54 | -0.224 | -1.8 | 0.167
5 | MWRSCLRLRDGGRRLLNRPAGGPSASMSPGPTIPSPARAYAPPTERKRFYQNVSITQGEGGFEINLDHRKLKTPQAKLFTVPSEALAIAVATEWDSQQDTIKYYTMHLTTLCNTSLDNPTQRNKDQLIRAAVKFLDTDTICYRVEEPETLVELQRNEWDPIIEWAEKRYGVEISSSTSIMGPSIPAKTREVLVSHLASYNTWALQGIEFVAAQLKSMVLTLGLIDLRLTVEQAVLLSRLEEEYQIQKWGNIEWAHDYELQELRARTAAGTLFIHLCSESTTVKHKLLKE [ATPAF2] | -0.295 | 56.8 | 56 | -0.051 | -1.43 | 0.104
6 | MWRVKKLSLSLSPSPQTGKPSMRTPLRELTLQPGALTNSGKRSPACSSLTPSLCKLGLQEGSNNSSPVDFVNNKRTDLSSEHFSHSSKWLETCQHESDEQPLDPIPQISSTPKTSEEAVDPLGNYMVKTIVLVPSPLGQQQDMIFEARLDTMAETNSISLNGPLRTDDLVREEVAPCMGDRFSEVAAVSEKPIFQESPSHLLEESPPNPCSEQLHCSKESLSSRTEAVREDLVPSESNAFLPSSVLWLSPSTALAADFRVNHVDPEEEIVEHGAMEEREMRFPTHPKESETEDQALVSSVEDILSTCLTPNLVEMESQEAPGPAVEDVGRILGSDTESWMSPLAWLEKGVNTSVMLENLRQSLSLPSMLRDAAIGTTPFSTCSVGTWFTPSAPQEKSTNTSQTGLVGTKHSTSETEQLLCGRPPDLTALSRHDLEDNLLSSLVILEVLSRQLRDWKSQLAVPHPETQDSSTQTDTSHSGITNKLQHLKESHEMGQALQQARNVMQSWVLISKELISLLHLSLLHLEEDKTTVSQESRRAETLVCCCFDLLKKLRAKLQSLKAEREEARHREEMALRGKDAAEIVLEAFCAHASQRISQLEQDLASMREFRGLLKDAQTQLVGLHAKQEELVQQTVSLTSTLQQDWRSMQLDYTTWTALLSRSRQLTEKLTVKSQQALQERDVAIEEKQEVSRVLEQVSAQLEECKGQTEQLELENSRLATDLRAQLQILANMDSQLKELQSQHTHCAQDLAMKDELLCQLTQSNEEQAAQWQKEEMALKHMQAELQQQQAVLAKEVRDLKETLEFADQENQVAHLELGQVECQLKTTLEVLRERSLQCENLKDTVENLTAKLASTIADNQEQDLEKTRQYSQKLGLLTEQLQSLTLFLQTKLKEKTEQETLLLSTACPPTQEHPLPNDRTFLGSILTAVADEEPESTPVPLLGSDKSAFTRVASMVSLQPAETPGMEESLAEMSIMTTELQSLCSLLQESKEEAIRTLQRKICELQARLQAQEEQHQEVQKAKEADIEKLNQALCLRYKNEKELQEVIQQQNEKILEQIDKSGELISLREEVTHLTRSLRRAETETKVLQEALAGQLDSNCQPMATNWIQEKVWLSQEVDKLRVMFLEMKNEKEKLMIKFQSHRNILEENLRRSDKELEKLDDIVQHIYKTLLSIPEVVRGCKELQGLLEFLS [SPAG5] | -0.134 | 48.2 | 48.4 | 0.87 | 2.82 | 0.306
7 | MYGASGGRAKPERKSGAKEEAGPGGAGGGGSRVELLVFGYACKLFRDDERALAQEQGQHLIPWMGDHKILIDRYDGRGHLHDLSEYDAEYSTWNRDYQLSEEEARIEALCDEERYLALHTDLLEEEARQEEEYKRLSEALAEDGSYNAVGFTYGSDYYDPSEPTEEEEPSKQREKNEAENLEENEEPFVAPLGLSVPSDVELPPTAKMHAIIERTASFVCRQGAQFEIMLKAKQARNSQFDFLRFDHYLNPYYKFIQKAMKEGRYTVLAENKSDEKKKSGVSSDNEDDDDEEDGNYLHPSLFASKKCNRLEELMKPLKVVDPDHPLAALVRKAQADSSTPTPHNADGAPVQPSQVEYTADSTVAAMYYSYYMLPDGTYCLAPPPPGIDVTTYYSTLPAGVTVSNSPGVTTTAPPPPGTTPLPPPTTAETSSGATSTTTTTSALAPVAAIIPPPPDVQPVIDKLAEYVARNGLKFETSVRAKNDQRFEFLQPWHQYNAYYEFKKQFFLQKEGGDSMQAVSAPEEAPTDSAPEKPSDAGEDGAPEDAAEVGARAGSGGKKEASSSKTVPDGKLVKASFAPISFAIKAKENDLLPLEKNRVKLDDDSDDDEESKEGQESSSSAANTNPAVAPPCVVVEEKKPQLTQEELEAKQAKQKLEDRLAAAAREKLAQASKESKEKQLQAERKRKAALFLQTLKNPLPEAEAGKIEESPFSVEESSTTPCPLLTGGRPLPTLEVKPPDRPSSKSKDPPREEEKEKKKKKHKKRSRTRSRSPKYHSSSKSRSRSHSKAKHSLPSAYRTVRRSRSRSRSPRRRAHSPERRREERSVPTAYRVSRSPGASRKRTRSRSPHEKKKKRRSRSRTKSKARSQSVSPSKQAAPRPAAPAAHSAHSASVSPVESRGSSQERSRGVSQEKEAQISSAIVSSVQSKITQDLMAKVRAMLAASKNLQTSAS [SFSWAP] | 0.468 | 50.4 | 50.6 | -0.391 | -0.0438 | -0.526
8 | MYH9 | -0.117 | 53.4 | 52.1 | -1.58 | 0.618 | 0.1
9 | MYO10 | -0.176 | 48.3 | 49.4 | 0.691 | 0.867 | -0.269
10 | MYTAIPQSGSPFPGSVQDPGLHVWRVEKLKPVPVAQENQGVFFSGDSYLVLHNGPEEVSHLHLWIGQQSSRDEQGACAVLAVHLNTLLGERPVQHREVQGNESDLFMSYFPRGLKYQEGGVESAFHKTSTGAPAAIKKLYQVKGKKNIRATERALNWDSFNTGDCFILDLGQNIFAWCGGKSNILERNKARDLALAIRDSERQGKAQVEIVTDGEEPAEMIQVLGPKPALKEGNPEEDLTADKANAQAAALYKVSDATGQMNLTKVADSSPFALELLISDDCFVLDNGLCGKIYIWKGRKANEKERQAALQVAEGFISRMQYAPNTQVEILPQGHESPIFKQFFKDWK [CAPG] | -0.0974 | 50.2 | 50.3 | 0.941 | 0.63 | 0.272
11 | MYTLLSGLYKYMFQKDEYCILILGLDNAGKTTFLEQSKTRFNKNYKGMSLSKITTTVGLNIGTVDVGKARLMFWDLGGQEELQSLWDKYYAECHGVIYVIDSTDEERLAESKQAFEKVVTSEALCGVPVLVLANKQDVETCLSIPDIKTAFSDCTSKIGRRDCLTQACSALTGKGVREGIEWMVKCVVRNVHRPPRQRDIT [ARFRP1] | -0.0831 | – | 52.8 | 0.162 | -0.992 | 0.0143
12 | NARFL | -0.0938 | 54.2 | 53.8 | 0.41 | 0.802 | 0.0811
13 | NAV1 | 0.0198 | 47.2 | 49 | 1.35 | 2.83 | -0.141
14 | NBAS | -0.169 | 49.8 | 50.1 | 0.362 | 1.51 | -0.197
15 | NCOR1 | 0.0133 | 48.5 | 52.2 | 0.817 | 5.94 | -0.0922
16 | NDRG1 | 0.00645 | 53.1 | 53.6 | 1.68 | -0.0804 | 0.246
17 | NDRG3 | -0.371 | 52.2 | 52 | 0.668 | 0.934 | 0.351
18 | NF1 | -0.137 | 49.7 | 50.4 | -0.998 | -0.184 | -0.315
19 | NFIB | -0.032 | 54.2 | 53.9 | 1.24 | 1.07 | 0.238
20 | NRBP1 | -0.15 | 51.9 | 51.4 | 0.757 | 0.7 | 0.099
21 | NUDC | -0.106 | 51.9 | 52.4 | 0.837 | -0.681 | 0.405
22 | NUP205 | 0.203 | 52.1 | 48.8 | -4.5 | -6.17 | -0.671
